We go through one protein from paper PMC10670289, “Characterization and Molecular Dynamics Simulation of a Lipase Capable of Improving the Functional Characteristics of an Egg-Yolk-Contaminated Liquid Egg White” (Foods, 2023).

Holding throughout (test): purified protein
Common to all, as to assay type: biochemical, Bacillus subtilis
What all share (conditions): 30 °C, pH 9.0

Substrate in data set [1]: CCCCCC(=O)Oc1ccc([N+](=O)[O-])cc1
Substrate in data set [2]: CCCCCCCC(=O)Oc1ccc([N+](=O)[O-])cc1
Substrate in data set [3]: CCCCCCCCCC(=O)Oc1ccc([N+](=O)[O-])cc1
Substrate in data set [4]: CCCCCCCCCCCC(=O)Oc1ccc([N+](=O)[O-])cc1
Substrate in data set [5]: CCCCCCCCCCCCCC(=O)Oc1ccc([N+](=O)[O-])cc1
Substrate in data set [6]: CCCCCCCCCCCCCCCC(=O)Oc1ccc([N+](=O)[O-])cc1
Substrate in data set [7]: CCCCCCCCCCCCCCCCCC(=O)Oc1ccc([N+](=O)[O-])cc1

What is called Km is the substrate concentration at which the rate is half of its maximum. What is called Vmax is the top rate of the reaction or transport when substrate is in excess.

B1: Lip-IM (Bacillus subtilis subsp. subtilis str. 168) (protein)
chain: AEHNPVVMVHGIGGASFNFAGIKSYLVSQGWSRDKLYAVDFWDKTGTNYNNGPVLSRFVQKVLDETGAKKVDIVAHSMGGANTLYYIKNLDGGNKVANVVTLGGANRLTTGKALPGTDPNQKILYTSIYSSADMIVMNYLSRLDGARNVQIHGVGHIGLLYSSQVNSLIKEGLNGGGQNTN
notes: 22 kDa by SDS-PAGE
In the case of B1, the Km in the data set “purified protein [1]” was 3.92 ± 0.06 mM; in the data set “purified protein [2]”, 4.21 ± 0.09 mM; in the data set “purified protein [3]”, 5.23 ± 0.04 mM; in the data set “purified protein [4]”, 5.96 ± 0.08 mM; in “purified protein [5]”, 5.12 ± 0.09 mM; in the data set “purified protein [6]”, 9.26 ± 0.09 mM. For the same protein, the Km in “purified protein [7]” is on record as 6.26 ± 0.07 mM. Moreover, the maximal velocity (Vmax) is 233 µM/min in the data set “purified protein [1]”; 236 µM/min in the data set “purified protein [2]”; 184 µM/min in the data set “purified protein [3]”; 204 µM/min in the data set “purified protein [4]”; 214 µM/min in the data set “purified protein [5]”; 150 µM/min in the data set “purified protein [6]”. Further, the Vmax in “purified protein [7]” came out at 292 µM/min.
